The record followed here is US20130295021A1 (published 2013).

Non-standard residues stand in square brackets, D forms with d. No end group written: not given here. pT = C[C@@H](OP(=O)(O)O)[C@H](N)C(=O)O

Assay [1] deals with T1, recombinant human tau, isoform Tau-F of 441aa (hTau40) (human, UniProt P10636 1-758).
T1 construct: Bought from rPeptide (Bogart, USA); also called full-length tau; rTau
Briefly: direct ELISA, hTau40 coated at 3 µg/ml (legend of FIG. 7). From the text:
(§1) The EC₅₀ values were estimated by a non-linear regression using GraphPad Prism software.
On the technique in general: An ELISA detects its analyte on a solid surface through an enzyme-linked reagent.

Assay [2] deals with T1, recombinant human tau, isoform Tau-F of …. Briefly: direct ELISA, hTau40 coated at 3 µg/ml.
Source text: as §1

For assay [3] the target is unchanged. Briefly: ELISA on recombinant tau.
Assay [4] shares this target. Briefly: ELISA on recombinant tau (FIG. 15).
Assay [5] has the same target. Briefly: direct ELISA, hTau40 coated at 1 µg/ml (legend of FIG. 2). As for the experimental part:
(§2) 96 well microplates (Costar, Corning, USA) were coated with recombinant Tau protein (hTau40, rPeptide, Bogart, USA) diluted to a concentration of 1 μg/ml in carbonate ELISA coating buffer (50 mM, pH9.6) at 4° C. over night. Non-specific binding sites were blocked for 2 hr at RT with PBS containing 2% BSA (Sigma, Buchs, Switzerland) and 0.5% Tween20. […] EC₅₀ values were estimated by a non-linear regression using GraphPad Prism software (San Diego, USA).
as §1

Assay [6] has the same target. Briefly: direct ELISA, hTau40 coated at 1 µg/ml. As for the experimental part:
as §2, §1

In assay [7] the target is T2, peptide corresponding to amino acids 333-346 of hTau40 with an additional C-terminal cysteine (human).
T2 peptide: GGGQVEVKSEKLDFC
Briefly: direct ELISA on coated peptide (legend of FIG. 5).

The target of assay [8] is T3, peptide corresponding to amino acids 226-239 of human tau (226VAVVRpTPPKSPSSA239), cognate epitope of AT180 (human).
T3 peptide: VAVVR[pT]PPKSPSSA
Briefly: direct ELISA on coated peptide.

Assay [9] has as its target T1, recombinant human tau, isoform Tau-F of …. Briefly: direct ELISA, hTau40 coated at 1 ug/ml; hTau40 coated at 1 ug/ml. As for the experimental part:
as §2
(§3) ELISA plates were coated with recombinant human tau (hTau40, 1 ug/ml), PHFTau (1:100) and control preparation (1:100), and incubated with varying antibody concentrations.

The target of assay [10] is T4, bovine serum albumin (BSA) (UniProt P02769 25-607).
T4 construct: Control antigen
Briefly: direct ELISA, plates coated with BSA. As for the experimental part:
To validate tau as a recognized target of isolated antibodies direct ELISA assays were performed as described above. […] No binding is observed to BSA (FIG. 10).

For assay [11], the target named is T5, PHFTau, paired helical filaments containing pathologically phosphorylated tau filaments extracted from AD … (human, UniProt P10636-8 1-441, limits assumed, pathologically phosphorylated; sites not given).
T5 construct: Brain extract, aggregated and phosphorylated; also called pathologically modified tau isoforms
Briefly: direct ELISA, PHFTau coated at 1:100; PHFTau coated at 1:100. As for the experimental part:
as §3

The target of assay [12] is T6, His-tagged tau domain III (AA 235-373 of hTau40) (human, UniProt P10636 552-690).
T6 construct: Expressed in E. coli BL21 (DE3) and purified on Ni-NTA
Briefly: Western blot. As for the experimental part: (§4) DNA fragments, synthesized using GeneArt® (Invitrogen), which encode each Tau domain with 6×His tagged at the N-terminus were cloned into the pRSET-A expression vector (Invitrogen), were transfected into E. Coli BL21 (DE3) (New England Biolabs). The expressions of the His-tagged Tau domains were induced by 0.5 mM IPTG for six hours before bacteria were lysed with lysozyme with sonication. The lysate was boiled for five minutes before being further purified with Ni-NTA Superflow Columns (Qiagen). The eluted His-tagged Tau domains were coated on ELISA plates or loaded on polyacrylamide gel for Western Blot. These sequentially overlapping tau domain polypeptides cover the full length of hTau40 (FIG. 13A).
(In western blotting, separated proteins are transferred to a membrane and probed.)

The target in assay [13] is T7, His-tagged tau domain II (AA 136-258 of hTau40) (human, UniProt P10636 387-575).
T7 construct: Expressed in E. coli BL21 (DE3) and purified on Ni-NTA
Briefly: Western blot. As for the experimental part: as §4

Assay [14] has as its target T8, His-tagged tau domain IV (AA 355-441 of hTau40) (human, UniProt P10636 672-758).
T8 construct: Expressed in E. coli BL21 (DE3) and purified on Ni-NTA
Briefly: Western blot. As for the experimental part: as §4

T1 sequence (P10636 other isoform, or with tags, fused parts or gaps limits assumed): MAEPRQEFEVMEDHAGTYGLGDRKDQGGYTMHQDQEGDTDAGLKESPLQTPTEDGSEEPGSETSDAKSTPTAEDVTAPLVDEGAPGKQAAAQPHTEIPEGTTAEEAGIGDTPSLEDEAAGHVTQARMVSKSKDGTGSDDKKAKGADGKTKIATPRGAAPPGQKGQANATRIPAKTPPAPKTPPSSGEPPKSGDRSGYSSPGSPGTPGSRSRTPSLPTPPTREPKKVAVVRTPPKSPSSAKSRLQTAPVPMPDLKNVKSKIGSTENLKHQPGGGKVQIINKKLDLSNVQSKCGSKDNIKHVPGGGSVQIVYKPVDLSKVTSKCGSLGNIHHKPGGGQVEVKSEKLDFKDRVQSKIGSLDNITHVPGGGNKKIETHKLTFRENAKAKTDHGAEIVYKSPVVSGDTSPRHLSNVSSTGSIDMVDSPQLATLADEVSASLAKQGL
T7 sequence (P10636 other isoform, or with tags, fused parts or gaps): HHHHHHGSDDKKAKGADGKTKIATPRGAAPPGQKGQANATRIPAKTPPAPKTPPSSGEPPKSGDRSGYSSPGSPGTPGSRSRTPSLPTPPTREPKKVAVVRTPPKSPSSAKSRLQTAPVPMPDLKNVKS
T5 sequence (P10636 other isoform, or with tags, fused parts or gaps limits assumed): as the sequence (P10636 other isoform, or with tags, fused parts or gaps limits assumed) above
T8 sequence (P10636 other isoform, or with tags, fused parts or gaps): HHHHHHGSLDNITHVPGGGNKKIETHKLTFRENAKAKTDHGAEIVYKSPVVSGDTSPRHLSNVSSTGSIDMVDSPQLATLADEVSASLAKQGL
T4 sequence (P02769 25-607 limits assumed): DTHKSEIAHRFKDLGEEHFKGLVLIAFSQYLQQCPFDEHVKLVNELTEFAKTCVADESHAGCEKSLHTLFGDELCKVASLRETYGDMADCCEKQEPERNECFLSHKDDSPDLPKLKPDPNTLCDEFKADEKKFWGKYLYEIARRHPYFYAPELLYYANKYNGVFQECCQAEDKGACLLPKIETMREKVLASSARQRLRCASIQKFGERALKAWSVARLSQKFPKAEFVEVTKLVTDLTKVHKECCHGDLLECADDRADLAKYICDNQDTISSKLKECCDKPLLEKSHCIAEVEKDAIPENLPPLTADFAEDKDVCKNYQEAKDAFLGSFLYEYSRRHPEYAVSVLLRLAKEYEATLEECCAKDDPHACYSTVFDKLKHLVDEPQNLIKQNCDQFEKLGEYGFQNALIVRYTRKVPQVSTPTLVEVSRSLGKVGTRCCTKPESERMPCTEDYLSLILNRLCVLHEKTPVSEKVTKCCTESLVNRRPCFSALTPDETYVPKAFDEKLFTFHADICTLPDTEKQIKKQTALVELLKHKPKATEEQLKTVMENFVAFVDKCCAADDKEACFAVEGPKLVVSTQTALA
T6 sequence (P10636 other isoform, or with tags, fused parts or gaps): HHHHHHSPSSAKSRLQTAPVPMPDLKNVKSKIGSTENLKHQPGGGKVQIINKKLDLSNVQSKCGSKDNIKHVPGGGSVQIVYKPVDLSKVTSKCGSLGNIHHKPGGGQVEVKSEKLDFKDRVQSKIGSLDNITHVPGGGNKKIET

B1: recombinant human tau antibody NI-105.24B2 (antibody, human IgG1, V domains shown)
VH: QVQLVQSGAEVKKPGASVKVSCKASGYTFVNYIIHWVRQAPGQGLEWMGIINPNGGNTSYAEKFQARVTLTSDTSTSTVYMDLSSLTSEDTAVYYCAVLSPSNPWGQGTTVTVSS
VL: SYELTQPPSVSVSPGQTAGITCSGDALPKQFVYWYQKKPGQAPVLLIYKDTERPSRIPERFSGSTSGTTVALTINGVQAEDEADYYCQSADRSGALWVFGGGTKLTVL
Consider B1, for which the 50% effective concentration (EC50) (commonly the concentration that produces a half-maximal response) in [1] was determined as 6 nM; in [2], 6.6 nM.

B2: ch4E4(N30Q), mouse IgG2a/lambda (antibody, V domains shown)
VH: EVQLVESGGGLVQPGGSLKLSCAASGFNFQISAIHWVRQASGKGLEWVGRIRSKSHNYATLYAASLKGRFTLSRDDSRNTAYLQMSSLQTEDMAVYYCTVLSANYDTFDYWGQGTLVTVSS
VL: SYELTQPPSVSVSPGQTARISCFGDTLPKQYTYWYQQKPGQAPVLVIYKDTERPSGIPERFSGSSSGTTVTLTISGVQAEDEADYYCLSADNSATWVFGGGTKVTVLG
notes: Produced in and purified from CHO cells; also called the modified antibody
Consider B2, for which the half-maximal effective concentration (EC50 (read off the curve)) (in general, the midpoint of the concentration-response curve) in assay [3] was about 0.04 µg/mL. Besides, in [4], the “fold higher apparent binding affinity relative to the original, glycosylated antibody (ch4E4)” value is about 4 fold.

B3: recombinant human tau antibody NI-105.4E4 (antibody, V domains shown)
VH: EVQLVESGGGLVQPGGSLKLSCAASGFNFNISAIHWVRQASGKGLEWVGRIRSKSHNYATLYAASLKGRFTLSRDDSRNTAYLQMSSLQTEDMAVYYCTVLSANYDTFDYWGQGTLVTVSS
VL: SYELTQPPSVSVSPGQTARISCFGDTLPKQYTYWYQQKPGQAPVLVIYKDTERPSGIPERFSGSSSGTTVTLTISGVQAEDEADYYCLSADNSATWVFGGGTKVTVL
Take B3: the EC50 is 2 nM in assay [5] and 2.4 nM in assay [6]. Further, the binding result in [7] is given as “binds”; in [8] it was “no binding”.

B4: ch4E4(N30Q) mIgG1 Agly (antibody, V domains shown)
VH: EVQLVESGGGLVQPGGSLKLSCAASGFNFQISAIHWVRQASGKGLEWVGRIRSKSHNYATLYAASLKGRFTLSRDDSRNTAYLQMSSLQTEDMAVYYCTVLSANYDTFDYWGQGTLVTVSS
VL: SYELTQPPSVSVSPGQTARISCFGDTLPKQYTYWYQQKPGQAPVLVIYKDTERPSGIPERFSGSSSGTTVTLTISGVQAEDEADYYCLSADNSATWVFGGGTKVTVLG
notes: also called ch4E4(N30Q) IgG 1-Agly; mouse chimeric aglycosylated variant of 4E4
Take B4: the “EC50 (read off the curve)” value in assay [3] is about 0.04 µg/mL.

B5: chimeric 4E4 (ch4E4), mouse IgG2a/lambda (antibody, V domains shown)
VH: EVQLVESGGGLVQPGGSLKLSCAASGFNFNISAIHWVRQASGKGLEWVGRIRSKSHNYATLYAASLKGRFTLSRDDSRNTAYLQMSSLQTEDMAVYYCTVLSANYDTFDYWGQGTLVTVSS
VL: SYELTQPPSVSVSPGQTARISCFGDTLPKQYTYWYQQKPGQAPVLVIYKDTERPSGIPERFSGSSSGTTVTLTISGVQAEDEADYYCLSADNSATWVFGGGTKVTVLG
modifications: N-glycan on Asn-30 (fully occupied on CHO expression)
notes: also called original, glycosylated antibody
As for B5, the concentration for a half-maximal effect (EC50 (read off the curve)) in [3] is about 0.2 µg/mL.

B6: recombinant human tau antibody NI-105.4A3 (antibody, human IgG1, V domains shown)
VH: QVQLVESGGGAVQPGGSLRLSCAASGFTFSDYAMHWVRQAPGKGLQWVAVISYEGTYKYYADSVKGRFTISRDNSKNTLNLQMSSLRVEDTAVYFCVKARAFASGQRSTSTVPDYWGQGTLVTVSS
VL: SYELTQPPSVSVSPGQTARITCSGDALPKKYAYWYQQKSGQAPVLVIYEDNKRPSGIPERFSGSSSGTVATLTISGAQVDDEADYYCYSTDISGDLRVFGGGTKLTVL
Regarding B6, the values for the EC50 in assay [9] and in assay [11] were 1.4 nM and 1.2 nM, respectively. The binding result in assay [10], in assay [12], in [13] and in [14] was “no binding” throughout.
